Experiments:
[1] = molecular target: the molecule itself; experiment: dynamic light scattering; MUC2 D1D2D3 at 0.3 mg/mL in 50 mM MES at varying pH, 150 mM NaCl, 37 °C; large species at pH 5.8 and below
[2] = molecular target: the molecule itself; experiment: negative stain TEM; MUC2 D1D2D3 at 0.3 mg/mL in 50 mM MES (pH 5.4), 225 mM NaCl, 10 mM CaCl2, 37 °C for 24 h; diluted to 0.03 mg/mL, stained with 2% uranyl acetate

Row | Protein | binding result [1] | binding result [2]
1 | MUC2 D1D2D3 (residues 21 to 1259 followed by a His6 tag) (domain or fragment, human, UniProt Q02817 21-1259, looked up, Mucin-2 (MUC2), human intestinal gel-forming mucin, amino-terminal D1D2D3 region, residues 21 to 1259, without CysD1; The dimers assemble into two-start helical tubules at acidic pH; also called D1D2D3 fragment; MUC2 amino-terminal fragment spanning the D1D2D3 region but lacking CysD1; source: HEK 293F, transient transfection, purified from culture medium (Ni-NTA); not shown: His6, C-terminal, …) SELQTEGRTRNHGHNVCSTWGNFHYKTFDGDVFRFPGLCDYNFASDCRGSYKEFAVHLKRGPGQAEAPAGVESILLTIKDDTIYLTRHLAVLNGAVVSTPHYSPGLLIEKSDAYTKVYSRAGLTLMWNREDALMLELDTKFRNHTCGLCGDYNGLQSYSEFLSDGVLFSPLEFGNMQKINQPDVVCEDPEEEVAPASCSEHRAECERLLTAEAFADCQDLVPLEPYLRACQQDRCRCPGGDTCVCSTVAEFSRQCSHAGGRPGNWRTATLCPKTCPGNLVYLESGSPCMDTCSHLEVSSLCEEHRMDGCFCPEGTVYDDIGDSGCVPVSQCHCRLHGHLYTPGQEITNDCEQCVCNAGRWVCKDLPCPGTCALEGGSHITTFDGKTYTFHGDCYYVLAKGDHNDSYALLGELAPCGSTDKQTCLKTVVLLADKKKNVVVFKSDGSVLLNELQVNLPHVTASFSVFRPSSYHIMVSMAIGVRLQVQLAPVMQLFVTLDQASQGQVQGLCGNFNGLEGDDFKTASGLVEATGAGFANTWKAQSSCHDKLDWLDDPCSLNIESANYAEHWCSLLKKTETPFGRCHSAVDPAEYYKRCKYDTCNCQNNEDCLCAALSSYARACTAKGVMLWGWREHVCNKDVGSCPNSQVFLYNLTTCQQTCRSLSEADSHCLEGFAPVDGCGCPDHTFLDEKGRCVPLAKCSCYHRGLYLEAGDVVVRQEERCVCRDGRLHCRQIRLIGQSCTAPKIHMDCSNLTALATSKPRALSCQTLAAGYYHTECVSGCVCPDGLMDDGRGGCVVEKECPCVHNNDLYSSGAKIKVDCNTCTCKRGRWVCTQAVCHGTCSIYGSGHYITFDGKYYDFDGHCSYVAVQDYCGQNSSLGSFSIITENVPCGTTGVTCSKAIKIFMGRTELKLEDKHRVVIQRDEGHHVAYTTREVGQYLVVESSTGIIVIWDKRTTVFIKLAPSYKGTVCGLCGNFDHRSNNDFTTRDHMVVSSELDFGNSWKEAPTCPDVSTNPEPCSLNPHRRSWAEKQCSILKSSVFSICHSKVDPKPFYEACVHDSCSCDTGGDCECFCSAVASYAQECTKEGACVFWRTPDLCPIFCDYYNPPHECEWHYEPCGNRSFETCRTINGIHSNISVSYLEGCYPRCPKDRPIYEEDLKKCVTADKCGCYVEDTHYPPGASVPTEETCKSCVCTNSSQVVCRPEEGKILNQTQDGAFCYWEICGPNGTVEKHFNICSIT | binds | 
2 | MUC2 D1D2D3, with an amino-terminal His6 tag and TEV protease cleavage site and lacking a carboxy-terminal His6 (domain or fragment, human, UniProt Q02817 21-1259, looked up, Mucin-2 (MUC2), human, D1D2D3 region; Made by restriction-free cloning from the plasmid of m1; also called D1D2D3 fragment produced with an amino-terminal His6 tag that was removed proteolytically; source: HEK 293F, transient transfection, purified from culture medium (Ni-NTA); tag removed proteolytically during purification; not shown: His6, N-terminal, cleaved) SELQTEGRTRNHGHNVCSTWGNFHYKTFDGDVFRFPGLCDYNFASDCRGSYKEFAVHLKRGPGQAEAPAGVESILLTIKDDTIYLTRHLAVLNGAVVSTPHYSPGLLIEKSDAYTKVYSRAGLTLMWNREDALMLELDTKFRNHTCGLCGDYNGLQSYSEFLSDGVLFSPLEFGNMQKINQPDVVCEDPEEEVAPASCSEHRAECERLLTAEAFADCQDLVPLEPYLRACQQDRCRCPGGDTCVCSTVAEFSRQCSHAGGRPGNWRTATLCPKTCPGNLVYLESGSPCMDTCSHLEVSSLCEEHRMDGCFCPEGTVYDDIGDSGCVPVSQCHCRLHGHLYTPGQEITNDCEQCVCNAGRWVCKDLPCPGTCALEGGSHITTFDGKTYTFHGDCYYVLAKGDHNDSYALLGELAPCGSTDKQTCLKTVVLLADKKKNVVVFKSDGSVLLNELQVNLPHVTASFSVFRPSSYHIMVSMAIGVRLQVQLAPVMQLFVTLDQASQGQVQGLCGNFNGLEGDDFKTASGLVEATGAGFANTWKAQSSCHDKLDWLDDPCSLNIESANYAEHWCSLLKKTETPFGRCHSAVDPAEYYKRCKYDTCNCQNNEDCLCAALSSYARACTAKGVMLWGWREHVCNKDVGSCPNSQVFLYNLTTCQQTCRSLSEADSHCLEGFAPVDGCGCPDHTFLDEKGRCVPLAKCSCYHRGLYLEAGDVVVRQEERCVCRDGRLHCRQIRLIGQSCTAPKIHMDCSNLTALATSKPRALSCQTLAAGYYHTECVSGCVCPDGLMDDGRGGCVVEKECPCVHNNDLYSSGAKIKVDCNTCTCKRGRWVCTQAVCHGTCSIYGSGHYITFDGKYYDFDGHCSYVAVQDYCGQNSSLGSFSIITENVPCGTTGVTCSKAIKIFMGRTELKLEDKHRVVIQRDEGHHVAYTTREVGQYLVVESSTGIIVIWDKRTTVFIKLAPSYKGTVCGLCGNFDHRSNNDFTTRDHMVVSSELDFGNSWKEAPTCPDVSTNPEPCSLNPHRRSWAEKQCSILKSSVFSICHSKVDPKPFYEACVHDSCSCDTGGDCECFCSAVASYAQECTKEGACVFWRTPDLCPIFCDYYNPPHECEWHYEPCGNRSFETCRTINGIHSNISVSYLEGCYPRCPKDRPIYEEDLKKCVTADKCGCYVEDTHYPPGASVPTEETCKSCVCTNSSQVVCRPEEGKILNQTQDGAFCYWEICGPNGTVEKHFNICSIT |  | binds

From paper PMC9169620, “Helical self-assembly of a mucin segment suggests an evolutionary origin for von Willebrand factor tubules” (Proceedings of the National Academy of Sciences of the …, 2022)
